Experimental data taken from article PMC4571279 (2015).
Substitutions are numbered along the chain they refer to.

B1: IgG1 m336-gL (all light-chain somatic mutations reverted to germline) (antibody, V domains shown)
VH: QVQLVQSGAEVKKPGSSVKVSCKASGGTFSSYAISWVRQAPGQGLEWMGGIIPIFGTASYAQKFQGRVTITADKSTSTAYMELSSLRSEDTAVYYCARVGYCSSTSCNRGAFDIWGQGTMVTVSS
VL: DIQMTQSPSSLSASVGDRVTITCRASQGIRNDLGWYQQKPGKAPKRLIYAASSLQSGVPSRFSGSGSGTEFTLTISSLQPEDFATYYCLQHNSYPLTFGGGTKVEIK
B2: IgG1 m336-gL-FR (light-chain framework somatic mutations reverted to germline) (antibody, V domains shown)
VH: B1 VH
VL: B1 VL with L89Q, H91L
B3: IgG1 m336-gH (heavy-chain somatic mutation reverted to germline) (antibody, V domains shown)
VH: B1 VH with S59N
VL: B1 VL with M4L, R46L, E70D, L89Q, H91L
B4: IgG1 m336 (antibody, V domains shown)
VH: B1 VH
VL: B1 VL with M4L, R46L, E70D, L89Q, H91L

Molecular target: recombinant MERS-CoV S1 protein (MERS-CoV)
Assay: SPR

In order of rising koff:
1. B3  0.000329 s⁻¹
2. B1  0.000545 s⁻¹
3. B2  0.000769 s⁻¹
4. B4  0.000955 s⁻¹

Molecular target: recombinant MERS-CoV S1 protein (MERS-CoV)
Assay: SPR
Remark: another data set of the same source

In order of rising Kd:
1. B3  0.239 nM
2. B4  1.49 nM
3. B2  15.7 nM
4. B1  25.2 nM
